Laboratory results reported in the supplement of paper PMC9170038.

System: MS2 coat protein
Assay: apparent KD of MS2 coat protein; designed switch direction (-1 OFF switch, 1 ON switch): -1; higher = weaker reporter binding
Outline: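 Transcription of designed RNA switches on Illumina chips was done by stalled E. coli RNA polymerase. SNAP-549-labelled MS2 coat protein was then titrated in doubling steps from 0.7 or 1.5 nM to 3 µM, with steps of 0.8–1.5 h at the lowest and 10–20 min at the highest concentration. The per-design median over clusters of curve-fitted normalised fluorescence is reported as apparent KD.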

[1] = Eterna round: R95, input ligand: microRNA oligo, concentration not stated
[2] = input ligand: microRNA oligo, concentration not stated
[3] = Eterna round: R95, input ligand: FMN 200 uM
[4] = Eterna round: R95, input ligand: none

UUUUUACGAGGAUAUCGAUUGUGGUACAUGAGGAUCACCCAUGUAUGUGAUAUUGUAUUUCGAGAAGGCGUUCAGU [JR_E5_Sub060] (puzzle: Exclusion 5)
apparent KD of MS2 coat protein [1]: 21.5 nM

CCGCUGCAAGGAUAUACUUGCGGUGGUGUUCGAGUUCUUUUACUUGAGGAUCACCCAAGUAGAAGGUGCAAAAC [jl-ex2.4.54 ViennaUCT mod] (Eterna round: R97, puzzle: Exclusion 2)
apparent KD of MS2 coat protein (input ligand: FMN 200 uM): 17.3 nM | apparent KD of MS2 coat protein (input ligand: none): 16.2 nM

GUGUGCUGAGGAUAUACACAGGAAUAGAAGAUAAGAUAAUCACAUGAGGAUCACCCAUGUAGAAGGCAGAGUGU [Excluse me!! 17 - Jieux - Exclusion 2] (puzzle: Exclusion 2)
apparent KD of MS2 coat protein [1]: 13.9 nM

AUUAAUGUCAAAGGAUAUCAGCACGUGUAGUGCUGAGAAGGUUGAACAUGAGGAUCACCCAUGUAGAUCAUUAAUAAUUUAAUU [ENG1/10-B3] (Eterna round: R96, puzzle: Exclusion NG 1)
apparent KD of MS2 coat protein (input ligand: FMN 200 uM): 25.5 nM | apparent KD of MS2 coat protein [2]: 14.5 nM | apparent KD of MS2 coat protein (input ligand: none): 20.6 nM

AAGAAACAUGAGGAUCACCCAUGUGAGGAUAUGAUGAAGAAAAGAAAAGAAAGAAGACUCAGAAGGCACAAAGG [salish99-ex1_r3_070] (puzzle: Exclusion 1)
apparent KD of MS2 coat protein [3]: 77.1 nM | apparent KD of MS2 coat protein [1]: 45.3 nM | apparent KD of MS2 coat protein [4]: 47.4 nM

AUGUGCACGCUGCGGUCCUACAUGAGGAUCACCCAUGUGGUCUGGUGGCGUGGGUCGCCGGACUUGGCUCGUCUUGU [salish99_S_TOV1_R5_030] (Eterna round: R97, puzzle: Sensor, turn-off variant 1)
apparent KD of MS2 coat protein (input ligand: FMN 200 uM): 18.6 nM | apparent KD of MS2 coat protein (input ligand: none): 18.7 nM

GAAUAGGCAGGAUAUACAUGAGGAUCACCCAUGUGCAAGCGAAAGGUACGUGAACAACGUAGAAGGGCCUAAAC [ChP 13.04.2015 #10] (puzzle: Exclusion 3)
apparent KD of MS2 coat protein [3]: 24.3 nM | apparent KD of MS2 coat protein [1]: 12.9 nM | apparent KD of MS2 coat protein [4]: 13.8 nM

GGGCUCGGUGUGAGGAUAUGCUCGGGUAAACUCGGGCAGAAGGCACAUGAGGAUCACCCAUGUAAGUCGGGCUC [-28.5, -27.4 kcal, A 23%, 4bis-4] (Eterna round: R97, puzzle: Brourd's mod of Exclusion 4)
apparent KD of MS2 coat protein (input ligand: FMN 200 uM): 18.6 nM | apparent KD of MS2 coat protein (input ligand: none): 18 nM

AUAAAGUGAGGAUAUCCAAUAUAUGACAUGAGGAUCACCCAUGUUUCCACUCGUACCUCCGGAGAAGGCACAAAAU [Ex5 #61] (Eterna round: R97, puzzle: Exclusion 5)
apparent KD of MS2 coat protein (input ligand: FMN 200 uM): 24.5 nM | apparent KD of MS2 coat protein (input ligand: none): 30.5 nM

AGUGUGUGGCAGGAUAUUCUAAUCGUGAGUAGGGAAGAAGGGUCUACAUGAGGAUCACCCAUGUAAGCGGUUGA [Ex6 #43] (Eterna round: R97, puzzle: Exclusion 6)
apparent KD of MS2 coat protein (input ligand: FMN 200 uM): 257 nM | apparent KD of MS2 coat protein (input ligand: none): 209 nM

AUAAAUCAUGUAGGAUAUGCGUGGCAAAGCUAUGCAGAAGGACAUGAGGAUCACCCAUGUUCUUCCGUCUGCGUACAGACGGAA [Mat - Exclusion NG 1 - Mod of JL - D40] (Eterna round: R96, puzzle: Exclusion NG 1)
apparent KD of MS2 coat protein (input ligand: FMN 200 uM): 418 nM | apparent KD of MS2 coat protein [2]: 31.4 nM | apparent KD of MS2 coat protein (input ligand: none): 37.3 nM

UAUAGUUCAGGAUAUGAUGAAUUAAACAUGAGGAUCACCCAUGUAGAUCCUGAAUUAACAUCAGAAGGGAAUAUUU [JL-ex5-4.49 Brourd mod] (Eterna round: R97, puzzle: Exclusion 5)
apparent KD of MS2 coat protein (input ligand: FMN 200 uM): 17.4 nM | apparent KD of MS2 coat protein (input ligand: none): 14.3 nM

GCGUGACAUGAGGAUCACCCAUGUGAGGAUAUCUGGAUACUCUUUAUUUUAGAUAUCCAGAGAAGGCACAUGCU [Ex1-3: 4Z] (puzzle: Exclusion 1)
apparent KD of MS2 coat protein [1]: 191 nM

GACUGGACAGGAUAUGUUCUUGAGCACUUGAGGAUCACCCAAGUCAUCAAGAACUCAGGCACAGAAGGGUUUAUGA [salish99_ex5_r4_008] (Eterna round: R97, puzzle: Exclusion 5)
apparent KD of MS2 coat protein (input ligand: FMN 200 uM): 29.6 nM | apparent KD of MS2 coat protein (input ligand: none): 13.5 nM

CUUGUGUUAGGAUAUGUUAAGCCGCCACCUGGCGGAUCAGGACAGAAGGAACAUGAGGAUCACCCAUGUAAAAG [Inenxele] (Eterna round: R97, puzzle: Exclusion 4)
apparent KD of MS2 coat protein (input ligand: FMN 200 uM): 55.1 nM | apparent KD of MS2 coat protein (input ligand: none): 105 nM

CUUCAGUAAGGAUAUCAGCUUAGGAGGUUGGUAAUGAGAGCUGAGAAGGUACAUGAGGAUCACCCAUGUUAGUU [JL Zatite mod 8] (puzzle: Exclusion 4)
apparent KD of MS2 coat protein [1]: 17 nM

AGCGAAAAGGCAGGAUAUGAGAAUAGAUAGAGCUCAGAAGGGCCACAUGAGGAUCACCCAUGUAAAGUCUUGAGGCUGCGUGGU [Prohibition 12 - Jieux - Exclusion NG 1] (Eterna round: R96, puzzle: Exclusion NG 1)
apparent KD of MS2 coat protein (input ligand: FMN 200 uM): 488 nM | apparent KD of MS2 coat protein [2]: 68.4 nM | apparent KD of MS2 coat protein (input ligand: none): 60.4 nM

UCAUACGGUGAGGAUAUCUCCACUAAAGUGUGUAGAGAAGGCGCUACAUGAGGAUCACCCAUGUUUAUGGGCAG [Ex-6 Malc#13] (puzzle: Exclusion 6)
apparent KD of MS2 coat protein [3]: 52 nM | apparent KD of MS2 coat protein [1]: 109 nM | apparent KD of MS2 coat protein [4]: 124 nM

AAGAGGAUUACAGGAUAUGAAGCUAAAACGGCGUUAGAAGGGUAUACAGAGUUACAUGAGGAUCACCCAUGUUGUGAUUUCUAA [AK ExNG1-V2-4.2] (Eterna round: R96, puzzle: Exclusion NG 1)
apparent KD of MS2 coat protein (input ligand: FMN 200 uM): 48.4 nM | apparent KD of MS2 coat protein [2]: 38.4 nM | apparent KD of MS2 coat protein (input ligand: none): 49.2 nM

UUUUUUGUUGUGAGGAUAUCGUUGUUGUUGUGGAUCGAGAAGGCACAUGAGGAUCACCCAUGUUUGUUGUGGUU [JR_BMOE4_Sub086] (puzzle: Brourd's mod of Exclusion 4)
apparent KD of MS2 coat protein [1]: 83.7 nM

AACACGGCAGGAUAUACUUGAGGAUCACCCAAGUUGUUCGCAACAUAAAAUAACUCUUGUAGAAGGGCCAAAAG [Isorbi] (Eterna round: R97, puzzle: Exclusion 3)
apparent KD of MS2 coat protein (input ligand: FMN 200 uM): 220 nM | apparent KD of MS2 coat protein (input ligand: none): 33.6 nM

CUAGUCCGAGGAUAUAUAUUGUGAUACAUGAGGAUCACCCAUGUAAUAAUAUGGAAAUAAAUAGAAGGCGGACUAG [Mat - Exclusion 5 - JL mod - D53] (puzzle: Exclusion 5)
apparent KD of MS2 coat protein [3]: 56.4 nM | apparent KD of MS2 coat protein [1]: 36.8 nM | apparent KD of MS2 coat protein [4]: 27 nM

UUAAAUCAUGUAGGAUAUGCGUGGAGAAACUAUGCAGAAGGACAUGAGGAUCACCCAUGUGCUUCCGUCUGCGUACAGAUGGUA [Mat - Exclusion NG 1 - Mod of JL - D8] (Eterna round: R96, puzzle: Exclusion NG 1)
apparent KD of MS2 coat protein [2]: 21.1 nM

AUUUAACAUGAGGAUCACCCAUGUGAGGAUAUGCGAGUGUAGACUUCGGUCUGAUAGAGCAGAAGGCGCAGAUA [EX1 #9] (Eterna round: R97, puzzle: Exclusion 1)
apparent KD of MS2 coat protein (input ligand: FMN 200 uM): 48.6 nM | apparent KD of MS2 coat protein (input ligand: none): 45 nM

UGUGCGUAUGUGAGGAUAUGCUGGUCCUUGGAUCGGCAGAAGGCACAUGAGGAUCACCCAUGUGGUGUCGUACG [salish99_Bmod_ex4_079] (puzzle: Brourd's mod of Exclusion 4)
apparent KD of MS2 coat protein [3]: 191 nM | apparent KD of MS2 coat protein [1]: 82.8 nM | apparent KD of MS2 coat protein [4]: 142 nM

ACAUGUCAUUGAGGAUAUUGCACACAUGAGGAUCACCCAUGUAAACGGAUGCUCUUACGUGGGUUCGAGAAGGCGAUGUACAUU [Ex NG2 #94] (Eterna round: R96, puzzle: Exclusion NG 2)
apparent KD of MS2 coat protein (input ligand: FMN 200 uM): 156 nM | apparent KD of MS2 coat protein [2]: 186 nM | apparent KD of MS2 coat protein (input ligand: none): 252 nM
